Data: PMC4510971, “Ubinuclein-1 confers histone H3.3-specific-binding by the HIRA histone chaperone complex” (Nature Communications, 2015)
Changes are numbered by the printed parent chain. Each block holds one binder with its values, some of them ahead of it. No end group written: not given here. *: point of attachment. FITC = O=C1OC2(c3ccc(O)cc3Oc3cc(O)ccc32)c2ccc(NC(=S)*)cc21

Experiments:
Conditions in all cases: both partners purified
[1] = biological target: T1, H3.3/H4 (human | X. laevis, UniProt P84243 1-136; P62799 1-103); assay: ITC; 0.450 mM UBN1 injected into a cell with 30 μM H3/H4, 22 °C; 20 mM HEPES pH 7.5, 750 mM NaCl, 1 mM TCEP
T1 construct: histone H3.3, human, from a human cDNA library (ATCC 77430); also called H3.3(FL)/H4(FL); FL H3.3/H4; not shown: His6, N-terminal, cleaved; copies: 2 + 2

[2] = biological target: T1, H3.3/H4; assay: ITC + fluorescence polarisation; range of dissociation constants printed 'depending on the assay used' (ITC and FP competition against FITC-UBN1(127–148)); 750 mM NaCl buffer
[3] = biological target: T1, H3.3/H4; assay: fluorescence polarisation; competition: UBN1 competitor titrated into 10 nM FITC-UBN1(127–148) with 6.5 μM H3.3/H4 or 25 μM H3.1/H4; 20 mM HEPES pH 7.5, 750 mM NaCl, 1 mM TCEP
[4] = biological target: T2, H3.1/H4 (human | X. laevis, UniProt P68431 1-136; P62799 1-103); assay: fluorescence polarisation; direct: increasing H3/H4 titrated into 10 nM FITC-UBN1(127–148); 20 mM HEPES pH 7.5, 750 mM NaCl, 1 mM TCEP; one site total binding fit
T2 construct: also called H3.1(FL)/H4(FL); FL H3.1/H4; not shown: His6, N-terminal, cleaved; copies: 2 + 2

[5] = biological target: T1, H3.3/H4; assay: as above
[6] = biological target: T1, H3.3/H4; assay: pull-down; 2 μM GST-tagged protein as bait on glutathione agarose, 4 μM H3/H4; 20 mM HEPES pH 7.5, 750 mM NaCl, 1 mM TCEP, 4 °C; Coomassie gel (Figs 2, 3, Supplementary Figs 1, 4, 5)
[7] = biological target: T3, Asf1/H3.3(FL)/H4(FL) (S. cerevisiae | human | X. laevis, UniProt P32447 1-169; P84243 1-136; P62799 1-103); assay: ITC; 0.450 mM UBN1 injected into a cell with 30 μM H3/H4, 22 °C; 20 mM HEPES pH 7.5, 750 mM NaCl, 1 mM TCEP
T3 construct: histone H3.3, human; also called Asf1/H3.3(FL)/H4(FL) complex; not shown: His6, N-terminal, cleaved; copies: + +

- binding result [3]: binds
B4: UBN1(92–175) S137A (domain or fragment)
chain: NDEEKERHKVEALARKFEEKYGGKKRRKDRIQDLIDMGYGYDESDAFIDNSEAYDELVPASLTTKYGGFYINSGTLQFRQASES
notes: source: E. coli BL21-Gold(DE3), purified (TEV cleavage, gel filtration); not shown: GST, N-terminal, cleaved

- binding result [3]: binds
B5: UBN1(92–175) E134A (domain or fragment)
chain: B4 chain with E43A, A46S
notes: one of the 27 alanine point mutants; the text names only the residue; also called E134 alanine point mutant; source: E. coli BL21-Gold(DE3), purified (TEV cleavage, gel filtration); not shown: GST, N-terminal, cleaved

- binding result [6]: binds
B7: GST-UBN1(92–175) E134A (domain or fragment)
chain: B4 chain with E43A, A46S
notes: one of the 27 alanine point mutants; the text names only the residue; also called E134 alanine point mutant; source: E. coli BL21-Gold(DE3), purified; not shown: GST, N-terminal, kept

- binding result [6]: binds
B8: GST-UBN1(92–175) S137A (domain or fragment)
chain: B4 chain
notes: also called S137 alanine point mutant; source: E. coli BL21-Gold(DE3), purified; not shown: GST, N-terminal, kept

- binding result [6]: binds
B9: GST-UBN1(92–175) S135A (domain or fragment)
chain: B4 chain with S44A, A46S
notes: one of the 27 alanine point mutants; the text names only the residue; also called S135 alanine point mutant; source: E. coli BL21-Gold(DE3), purified; not shown: GST, N-terminal, kept

- binding result [1]: binds
B11: UBN1(92–148) (domain or fragment)
chain: NDEEKERHKVEALARKFEEKYGGKKRRKDRIQDLIDMGYGYDESDSFIDNSEAYDEL

Second part, the binder before the results:

B1: UBN1(122–175) (domain or fragment)
chain: not shown
- binding result [1]: binds

B2: UBN1(92–175) (domain or fragment)
chain: B4 chain with A46S
notes: also called UBN1 WT; source: E. coli BL21-Gold(DE3), purified (glutathione agarose, TEV cleavage, gel filtration); not shown: GST, N-terminal, cleaved
- Kd [2]: 7 to 17 µM

B3: UBN1(92–175) S135A (domain or fragment)
chain: B4 chain with S44A, A46S
notes: one of the 27 alanine point mutants; the text names only the residue; also called S135 alanine point mutant; source: E. coli BL21-Gold(DE3), purified (TEV cleavage, gel filtration); not shown: GST, N-terminal, cleaved
- binding result [3]: binds

B6: FITC-UBN1(127–148) (peptide)
peptide: {FITC}-DMGYGYDESDSFIDNSEAYDEL
notes: also called FITC-labelled UBN1 peptide; source: synthetic peptide (Genscript)
- Kd [4]: 17.7 ± 2.3 µM
- Kd [5]: 4.3 ± 0.2 µM

B10: UBN1(122–148) peptide (peptide)
peptide: IQDLIDMGYGYDESDSFIDNSEAYDEL
notes: also called UBN1-HRD peptide; source: synthetic peptide (Genscript)
- Kd [2]: 40 to 46 µM
- Kd [7]: ~49 µM
